Measurements as given in paper PMC4669772, “The conserved Trp114 residue of thioredoxin reductase 1 has a redox sensor-like function triggering oligomerization and crosslinking upon oxidative stress related to cell death” (Cell Death & Disease, 2015).
Numbering of substitutions follows the chain as printed.

B1: recombinant rat TrxR1 W114E (enzyme)
chain: MNDSKDAPKSYDFDLIIIGGGSGGLAAAKEAAKFDKKVMVLDFVTPTPLGTRWGLGGTCVNVGCIPKKLMHQAALLGQALKDSRNYGWKLEDTVKHDWEKMTESVQNHIGSLNEGYRVALREKKVVYENAYGKFIGPHKIMATNNKGKEKVYSAERFLIATGERPRYLGIPGDKEYCISSDDLFSLPYCPGKTLVVGASYVALECAGFLAGIGLDVTVMVRSILLRGFDQDMANKIGEHMEEHGIKFIRQFVPTKIEQIEAGTPGRLKVTAKSTNSEETIEDEFNTVLLAVGRDSCTRTIGLETVGVKINEKTGKIPVTDEEQTNVPYIYAIGDILEGKLELTPVAIQAGRLLAQRLYGGSTVKCDYDNVPTTVFTPLEYGCCGLSEEKAVEKFGEENIEVYHSFFWPLEWTVPSRDNNKCYAKVICNLKDNERVVGFHVLGPNAGEVTQGFAAALKCGLTKQQLDSTIGIHPVCAEIFTTLSVTKRSGGDILQSGCUG
modifications: selenocysteine (Sec, U) at 498
notes: thioredoxin reductase 1, rat, with Trp114 changed to Glu; also called Glu114; source: E. coli BL21 (DE3) gor-, purified (2'5'-ADP Sepharose, Superdex G200 size exclusion)
B2: recombinant rat TrxR1 W114R (enzyme)
chain: B1 chain with E114R
modifications: selenocysteine (Sec, U) at 498
notes: thioredoxin reductase 1, rat, with Trp114 changed to Arg; also called Arg114; source: E. coli BL21 (DE3) gor-, purified (2'5'-ADP Sepharose, Superdex G200 size exclusion)
B3: recombinant rat TrxR1 W114F (enzyme)
chain: B1 chain with E114F
modifications: selenocysteine (Sec, U) at 498
notes: thioredoxin reductase 1, rat, with Trp114 changed to Phe; also called Phe114; source: E. coli BL21 (DE3) gor-, purified (2'5'-ADP Sepharose, Superdex G200 size exclusion)
B4: recombinant rat TrxR1 W114G (enzyme)
chain: B1 chain with E114G
modifications: selenocysteine (Sec, U) at 498
notes: thioredoxin reductase 1, rat, with Trp114 changed to Gly; also called Gly114; source: E. coli BL21 (DE3) gor-, purified (2'5'-ADP Sepharose, Superdex G200 size exclusion)
B5: recombinant rat thioredoxin reductase 1 (TrxR1), wild type (enzyme)
chain: B1 chain with E114W
modifications: selenocysteine (Sec, U) at 498
notes: thioredoxin reductase 1, rat, expressed from a pET-TRSTER-derived plasmid with pSUABC; FAD-containing homodimer; tetramers (two dimers) were purified from the same preparation in the absence of reductant; In the tetramer two of the four Trp114 are modified (oxidised) and linked; also called WT; wild-type TrxR1; source: E. coli BL21 (DE3) gor-, purified (2'5'-ADP Sepharose, Superdex G200 size …)

Experiments:
[1] = molecular target: the molecule itself; experiment: SEC; propensity of purified recombinant rat TrxR1 variants to form oligomers (Supplementary Figure S8); oligomers separated on Superdex G200 at 4 °C
[2] = molecular target: the molecule itself; experiment: native gel or EMSA; purified recombinant TrxR1 tetramers, native PAGE under reducing conditions
[3] = molecular target: the molecule itself; experiment: native gel or EMSA; purified recombinant TrxR1 tetramers, native PAGE under oxidized (non-reducing) conditions; dimers to tetramer

Row | Protein | binding result [1] | stoichiometry N [2] | stoichiometry N [3]
1 | B1 | binds |  | 
2 | B2 | binds |  | 
3 | B3 | binds |  | 
4 | B4 | binds |  | 
5 | B5 |  | 2 | 4
